Reference: publication PMC3176823, “A Membrane-Bound Vertebrate Globin” (PLoS ONE, 2011)

Target: the molecule itself
Test: SDS-PAGE + MALDI-TOF; purified GbXΔNC heat-denatured in SDS sample buffer (2.5% β-mercaptoethanol), 15% SDS-PAGE; also 10–15% gradient gels (PhastSystem) in the absence and presence of DTT; bands identified by MALDI-TOF after tryptic digest

B1: N- and C-terminally truncated Danio rerio globin X (GbXΔNC) (domain or fragment, Danio rerio (zebrafish), UniProt A0AC58HMV5 25-184, looked up)
chain: PAGLTANHIRLIKESWRLIQEDIAKVGIIMFVRLFETHPECKDVFFLFRDVEDLERLRTSRELRAHGLRVMSFIEKSVARLDQLERLETLALELGKSHYRYNAPPKYYGYVGAEFICAVRPILKDRWTPELEEAWKTLFQYVTSIMREGFLEEERNKRSN
notes: globin X (GbX) of zebrafish (Danio rerio), amino acids 25 to 184 (the globin core), cloned into pET3a; Heme protein; No tag is mentioned for the pET3a construct; also called recombinant truncated GbX; source: E. coli BL21(DE3)pLysS, purified (ammonium sulfate precipitation, ion-exchange, size exclusion chromatography)
  stoichiometry N: 2
